Reference: publication PMC8410842, “Heimdallarchaea encodes profilin with eukaryotic-like actin regulation and polyproline binding” (Communications Biology, 2021)
Read-outs that look alike come from different tables or passages of the source.

Key:
ΔN-heimProfilin = target: T1, ΔN-heimProfilin (Candidatus Heimdallarchaeota archaeon LC_3, UniProt A0A1Q9NL85); assay: NMR 1H-15N TROSY-HSQC titration; format: binding; settings: 25 mM Tris-HCl pH 7.5, 50 mM NaCl, 5% glycerol, 298 K; acyl chains not given
T1 construct: gene HeimC3_27980; residues 1-23 (N-terminal extension) deleted; E. coli Rosetta DE3; His6-SUMO tag cleaved with Ulp1; 15N labelled; PDB 6YRR is the full-length parent

[1] = target: Heimdallarchaeota LC3 profilin (heimProfilin) (Candidatus Heimdallarchaeota archaeon LC_3); assay: ITC; profilin in the cell (approx. 0.1-0.5 mM), 20 injections of 1.0-14 mM polyproline (VASP); 50 mM Na3PO4 pH 7.5, 50 mM NaCl; 25 °C; triplicates
[2] = target: ΔN-heimProfilin (Candidatus Heimdallarchaeota archaeon LC_3); assay: as above
[3] = target: both the full-length protein and ΔN-thorProfilin; assay: NMR titration; 1H-15N TROSY-HSQC; fixed thorProfilin or ΔN-thorProfilin (200 μM), increasing polyproline … (0, 5, 7 mM in the legend); 25 mM Tris-HCl pH 6.8, 150 mM NaCl; KD from fits of chemical shifts of a few residues
[4] = target: both the full-length protein and ΔN-thorProfilin; assay: as above; remark: listed apart in the source

For PIP2, the affinity (ΔN-heimProfilin) was ~ 0.5–1 ± 0.3 mM.

B1: polyproline motif of VASP (…) (peptide)
peptide: GAGGGPPPAPPLPAAQ
With B1 the Kd [1] was 3.3 mM and the Kd [2] was 300 µM.

B2: polyproline from VASP (…) (peptide)
peptide: PPPAPPLPAAQ
Work on B2 yielded a Kd [3] of 250 to 500 µM and a Kd [4] of 200 to 500 µM.
